# T1: recombinant human CEACAM-1 (R&D Systems cat. no. 2244-CM-050) (human, UniProt P13688 35-428)
# T1 construct: Coated on the ELISA plate at 0.5 ug/ml
# T1 sequence (looked up): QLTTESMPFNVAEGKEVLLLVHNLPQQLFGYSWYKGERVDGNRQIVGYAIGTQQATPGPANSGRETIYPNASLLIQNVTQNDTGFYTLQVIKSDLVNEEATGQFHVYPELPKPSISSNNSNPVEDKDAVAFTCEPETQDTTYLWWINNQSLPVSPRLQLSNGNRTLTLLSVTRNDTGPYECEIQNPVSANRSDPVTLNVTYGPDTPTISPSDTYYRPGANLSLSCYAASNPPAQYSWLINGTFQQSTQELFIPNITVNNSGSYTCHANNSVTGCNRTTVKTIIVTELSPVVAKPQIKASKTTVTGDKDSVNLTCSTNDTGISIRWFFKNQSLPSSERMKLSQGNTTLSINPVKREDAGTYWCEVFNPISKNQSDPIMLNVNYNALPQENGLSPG
# Target: T1, recombinant human CEACAM-1 (R&D Systems …)
# Test: competition ELISA on coated recombinant human CEACAM-1; competitor biotinylated chimeric CM-10 IgG1
# Excerpt: The binding of the biotinylated antibody was detected with streptavidin-HRP (Sigma cat. no. S5512) and TMB substrate (Invitrogen cat. no. 00-2023). The reaction was stopped with 3M HC1, absorbance read at 450 nm on a Dynex Technologies MRX TC II plate reader and the binding curves plotted.
IC50,IC50 normalized to CM-10,Binder
0.76 µg/mL,1.26 ratio to IC50 of chimeric CM-10,"humanized anti-CEACAM-1 variant VH2/VK2, IgG4 (S241P) (antibody, V domains shown, Tested as human IgG4 (S241P) / kappa antibody; only the variable regions are tied to this variant) VH: QVQLVQSGAEVKKPGASVKVSCKASGYAFTNNLIEWVKQAPGQGLEWIGVINPGSGDTNYNEKFKGRATLTADKSINTAYMELSRLRSDDTAVYFCARGDYYGGFAVDYWGQGTTVTVSS VL: DIQMTQSPSSLSASVGDRVTITCRTSQDIGNYLNWYQQKPGKAVKLLIYYTSRLHSGVPSRFSGSGSGTDYTLTISSLQPEDIATYFCQQGKSLPRTFGGGTKVEIK"
0.86 µg/mL,1.37 ratio to IC50 of chimeric CM-10,"humanized anti-CEACAM-1 variant VH3/VK3, IgG1 (antibody, V domains shown, Tested as human IgG1 / kappa antibody; only the variable regions are tied to this variant) VH: QVQLVQSGAEVKKPGASVKVSCKASGYAFTNNLIEWVRQAPGQGLEWIGVINPGSGDTNYNEKFKGRATLTADKSINTAYMELSRLRSDDTAVYYCARGDYYGGFAVDYWGQGTTVTVSS VL: DIQMTQSPSSLSASVGDRVTITCRTSQDIGNYLNWYQQKPGKAVKLLIYYTSRLHSGVPSRFSGSGSGTDYTFTISSLQPEDIATYFCQQGKSLPRTFGGGTKVEIK"
0.78 µg/mL,1.46 ratio to IC50 of chimeric CM-10,"humanized anti-CEACAM-1 variant VH1/VK1, IgG1 (antibody, V domains shown, Tested as human IgG1 / kappa antibody; only the variable regions are tied to this variant) VH: QVQLVQSGAELKKPGASVKVSCKASGYAFTNNLIEWVKQAPGQGLEWIGVINPGSGDTNYNEKFKGRATLTADKSINTAYMELSSLTSDDSAVYFCARGDYYGGFAVDYWGQGTSVTVSS VL: DIQMTQSPSSLSASVGDRVTITCRTSQDIGNYLNWYQQKPGKAVKLLIYYTSRLHSGVPSRFSGSGSGTDYTLTISSLQQEDIATYFCQQGKSLPRTFGGGTKVEIK"
0.68 µg/mL,1.29 ratio to IC50 of chimeric CM-10,"humanized anti-CEACAM-1 variant VH2/VK1, IgG1 (antibody, V domains shown, Tested as human IgG1 / kappa antibody; only the variable regions are tied to this variant) VH: QVQLVQSGAEVKKPGASVKVSCKASGYAFTNNLIEWVKQAPGQGLEWIGVINPGSGDTNYNEKFKGRATLTADKSINTAYMELSRLRSDDTAVYFCARGDYYGGFAVDYWGQGTTVTVSS VL: DIQMTQSPSSLSASVGDRVTITCRTSQDIGNYLNWYQQKPGKAVKLLIYYTSRLHSGVPSRFSGSGSGTDYTLTISSLQQEDIATYFCQQGKSLPRTFGGGTKVEIK"
0.78 µg/mL,1.52 ratio to IC50 of chimeric CM-10,"humanized anti-CEACAM-1 variant VH1/VK1, IgG4 (S241P) (antibody, V domains shown, Tested as human IgG4 (S241P) / kappa antibody; only the variable regions are tied to this variant) VH: QVQLVQSGAELKKPGASVKVSCKASGYAFTNNLIEWVKQAPGQGLEWIGVINPGSGDTNYNEKFKGRATLTADKSINTAYMELSSLTSDDSAVYFCARGDYYGGFAVDYWGQGTSVTVSS VL: DIQMTQSPSSLSASVGDRVTITCRTSQDIGNYLNWYQQKPGKAVKLLIYYTSRLHSGVPSRFSGSGSGTDYTLTISSLQQEDIATYFCQQGKSLPRTFGGGTKVEIK"
0.7 µg/mL,1.36 ratio to IC50 of chimeric CM-10,"humanized anti-CEACAM-1 variant VH1/VK2, IgG4 (S241P) (antibody, V domains shown, Tested as human IgG4 (S241P) / kappa antibody; only the variable regions are tied to this variant) VH: QVQLVQSGAELKKPGASVKVSCKASGYAFTNNLIEWVKQAPGQGLEWIGVINPGSGDTNYNEKFKGRATLTADKSINTAYMELSSLTSDDSAVYFCARGDYYGGFAVDYWGQGTSVTVSS VL: DIQMTQSPSSLSASVGDRVTITCRTSQDIGNYLNWYQQKPGKAVKLLIYYTSRLHSGVPSRFSGSGSGTDYTLTISSLQPEDIATYFCQQGKSLPRTFGGGTKVEIK"
0.71 µg/mL,1.16 ratio to IC50 of chimeric CM-10,"humanized anti-CEACAM-1 variant VH3/VK1, IgG4 (S241P) (antibody, V domains shown, Tested as human IgG4 (S241P) / kappa antibody; only the variable regions are tied to this variant) VH: QVQLVQSGAEVKKPGASVKVSCKASGYAFTNNLIEWVRQAPGQGLEWIGVINPGSGDTNYNEKFKGRATLTADKSINTAYMELSRLRSDDTAVYYCARGDYYGGFAVDYWGQGTTVTVSS VL: DIQMTQSPSSLSASVGDRVTITCRTSQDIGNYLNWYQQKPGKAVKLLIYYTSRLHSGVPSRFSGSGSGTDYTLTISSLQQEDIATYFCQQGKSLPRTFGGGTKVEIK"
0.71 µg/mL,1.16 ratio to IC50 of chimeric CM-10,"humanized anti-CEACAM-1 variant VH2/VK3, IgG4 (S241P) (antibody, V domains shown, Tested as human IgG4 (S241P) / kappa antibody; only the variable regions are tied to this variant) VH: QVQLVQSGAEVKKPGASVKVSCKASGYAFTNNLIEWVKQAPGQGLEWIGVINPGSGDTNYNEKFKGRATLTADKSINTAYMELSRLRSDDTAVYFCARGDYYGGFAVDYWGQGTTVTVSS VL: DIQMTQSPSSLSASVGDRVTITCRTSQDIGNYLNWYQQKPGKAVKLLIYYTSRLHSGVPSRFSGSGSGTDYTFTISSLQPEDIATYFCQQGKSLPRTFGGGTKVEIK"
0.73 µg/mL,1.15 ratio to IC50 of chimeric CM-10,"humanized anti-CEACAM-1 variant VH4/VK1, IgG1 (antibody, V domains shown, Tested as human IgG1 / kappa antibody; only the variable regions are tied to this variant) VH: QVQLVQSGAEVKKPGASVKVSCKASGYAFTNNLIEWVRQAPGQGLEWIGVINPGSGDTNYNEKFKGRATLTADKSISTAYMELSRLRSDDTAVYYCARGDYYGGFAVDYWGQGTTVTVSS VL: DIQMTQSPSSLSASVGDRVTITCRTSQDIGNYLNWYQQKPGKAVKLLIYYTSRLHSGVPSRFSGSGSGTDYTLTISSLQQEDIATYFCQQGKSLPRTFGGGTKVEIK"
0.78 µg/mL,1.24 ratio to IC50 of chimeric CM-10,"humanized anti-CEACAM-1 variant VH2/VK2, IgG1 (antibody, V domains shown, Tested as human IgG1 / kappa antibody; only the variable regions are tied to this variant) VH: QVQLVQSGAEVKKPGASVKVSCKASGYAFTNNLIEWVKQAPGQGLEWIGVINPGSGDTNYNEKFKGRATLTADKSINTAYMELSRLRSDDTAVYFCARGDYYGGFAVDYWGQGTTVTVSS VL: DIQMTQSPSSLSASVGDRVTITCRTSQDIGNYLNWYQQKPGKAVKLLIYYTSRLHSGVPSRFSGSGSGTDYTLTISSLQPEDIATYFCQQGKSLPRTFGGGTKVEIK"

# — patent publication US20240092934A1 (FAMEWAVE, published 2024)
